# Reference: IntAct's records for PubMed 30545121
# B1: Ribosome maturation protein SBDS (Homo sapiens), Q9Y3A5 (parent)
# chain: MSIFTPTNQIRLTNVAVVRMKRAGKRFEIACYKNKVVGWRSGVEKDLDEVLQTHSVFVNVSKGQVAKKEDLISAFGTDDQTEICKQILTKGEVQVSDKERHTQLEQMFRDIATIVADKCVNPETKRPYTVILIERAMKDIHYSVKTNKSTKQQALEVIKQLKEKMKIERAHMRLRFILPVNEGKKLKEKLKPLIKVIESEDYGQQLEIVCLIDPGCFREIDELIKKETKGKGSLEVLNLKDVEEGDEKFE
# partner: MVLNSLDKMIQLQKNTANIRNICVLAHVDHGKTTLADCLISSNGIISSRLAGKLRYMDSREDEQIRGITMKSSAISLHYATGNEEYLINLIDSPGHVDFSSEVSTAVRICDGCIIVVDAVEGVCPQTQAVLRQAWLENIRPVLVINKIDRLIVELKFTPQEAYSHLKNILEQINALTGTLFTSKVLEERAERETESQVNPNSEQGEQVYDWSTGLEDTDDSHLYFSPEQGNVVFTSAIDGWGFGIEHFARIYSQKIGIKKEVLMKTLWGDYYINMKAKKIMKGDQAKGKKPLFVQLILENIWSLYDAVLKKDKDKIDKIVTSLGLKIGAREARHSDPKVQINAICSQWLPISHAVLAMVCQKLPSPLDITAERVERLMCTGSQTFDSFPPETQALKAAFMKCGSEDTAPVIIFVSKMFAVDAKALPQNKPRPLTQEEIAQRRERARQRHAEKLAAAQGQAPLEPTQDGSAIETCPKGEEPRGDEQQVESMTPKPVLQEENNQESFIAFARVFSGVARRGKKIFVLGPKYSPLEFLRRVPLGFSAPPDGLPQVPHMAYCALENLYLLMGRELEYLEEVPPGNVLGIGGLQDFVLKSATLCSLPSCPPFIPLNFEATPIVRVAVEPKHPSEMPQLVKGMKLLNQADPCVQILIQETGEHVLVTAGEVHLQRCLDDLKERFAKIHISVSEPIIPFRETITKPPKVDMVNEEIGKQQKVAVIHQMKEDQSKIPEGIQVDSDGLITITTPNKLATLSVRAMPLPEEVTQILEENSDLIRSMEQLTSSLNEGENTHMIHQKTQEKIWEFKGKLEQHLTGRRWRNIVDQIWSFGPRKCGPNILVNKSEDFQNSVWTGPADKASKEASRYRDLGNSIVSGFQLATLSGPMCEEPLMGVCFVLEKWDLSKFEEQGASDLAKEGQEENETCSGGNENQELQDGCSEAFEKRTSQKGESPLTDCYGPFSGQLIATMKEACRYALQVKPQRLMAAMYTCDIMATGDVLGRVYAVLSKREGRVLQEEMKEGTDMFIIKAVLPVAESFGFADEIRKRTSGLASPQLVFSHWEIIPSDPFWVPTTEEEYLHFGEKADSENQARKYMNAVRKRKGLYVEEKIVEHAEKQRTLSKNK
# Variants of: B1
# Conditions: with efl1_human EFL1, Q7Z2Z2
row,Variant,effect of a mutation on the interaction
1,MSIFTPTNQIRLTNVAVVRMKRAGKRFEIACYKNKVVGWRSGVEKDLDEVLQTHSVFVNVSKGQVAKKEDLISAFGTDDQTEICKQILTKGEVQVSDKERHTQLEQMFRDIATIVADKCVNPETKTPYTVILIERAMKDIHYSVKTNKSTKQQALEVIKQLKEKMKIERAHMRLRFILPVNEGKKLKEKLKPLIKVIESEDYGQQLEIVCLIDPGCFREIDELIKKETKGKGSLEVLNLKDVEEGDEKFE [R126T],decreasing interaction strength
2,MSIFTPTNQIRLTNVAVVRMKRAGKRFEIACYKNKVVGWRSGVEKDLDEVLQTHSVFVNVSKGQVAKKEDLISAFGTDDQTEICKQILTKGEVQVSDKERHTQLEQMFRDIATIVADKCVNPETKRPYTVILIERAMKDIHYLVKTNKSTKQQALEVIKQLKEKMKIERAHMRLRFILPVNEGKKLKEKLKPLIKVIESEDYGQQLEIVCLIDPGCFREIDELIKKETKGKGSLEVLNLKDVEEGDEKFE [S143L],disrupting interaction strength
3,MSIFTPTNQIRLTNVAVVQMKRAGKRFEIACYKNKVVGWRSGVEKDLDEVLQTHSVFVNVSKGQVAKKEDLISAFGTDDQTEICKQILTKGEVQVSDKERHTQLEQMFRDIATIVADKCVNPETKRPYTVILIERAMKDIHYSVKTNKSTKQQALEVIKQLKEKMKIERAHMRLRFILPVNEGKKLKEKLKPLIKVIESEDYGQQLEIVCLIDPGCFREIDELIKKETKGKGSLEVLNLKDVEEGDEKFE [R19Q],decreasing interaction strength
4,MSIFTPTNQIRLTNVAVVRMKRAGKRFEIACYKNKVVGWRSGVEKDLDEVLQTHSVFVNVSKGQVAEKEDLISAFGTDDQTEICKQILTKGEVQVSDKERHTQLEQMFRDIATIVADKCVNPETKRPYTVILIERAMKDIHYSVKTNKSTKQQALEVIKQLKEKMKIERAHMRLRFILPVNEGKKLKEKLKPLIKVIESEDYGQQLEIVCLIDPGCFREIDELIKKETKGKGSLEVLNLKDVEEGDEKFE [K67E],decreasing interaction strength
5,MSIFTPTNQIRLTNVAVVRMKRAGKRFEIACYKNKVVGWRSGVEKDLDEVLQTHSVFVNVSKGQVAKKEDLISAFGTDDQTEICKQILTKGEVQVSDKERHTQLEQMFRDIATIVADKCVNPETKRPYTVILIERAMKDIHYSVKTNKSTKQQALEVIKQLKEKMKIERAHMRLRFILPVNEGKKLKEKLKPLIKVIESEDYGQQLEIVCLTDPGCFREIDELIKKETKGKGSLEVLNLKDVEEGDEKFE [I212T],disrupting interaction strength
6,MSIFTPTNQIRLTNVAVVRMKRAGKRFEIACYKNKVVGWRSGVEKDLDEVLQTHSVFVNVSKGQVAKKEDLISAFGTDDQTEICKQILTKGEVQVSDKERHTQLEQMFRDIATIVADKCVNPETKRPYTVILIERAMKDIHYSVKTNKSTKQQALEVIKQLKEKMKTERAHMRLRFILPVNEGKKLKEKLKPLIKVIESEDYGQQLEIVCLIDPGCFREIDELIKKETKGKGSLEVLNLKDVEEGDEKFE [I167T],decreasing interaction strength
7,MSIFTPTNQIRLTNVAVVRMKRAGKRFEIACYKNKVVGWRSGVEKDLDEVLQTHSVFVNVSKGQVAKKEDLISAFGTDDQTEICKQILTKGEVQVSDKERHTQLEQMFRDIATIVADKCVNPETKRPYTVILIERAMKDIHYSVKTNKSTKQQALEVIKQLKEKMKIERAHMRLWFILPVNEGKKLKEKLKPLIKVIESEDYGQQLEIVCLIDPGCFREIDELIKKETKGKGSLEVLNLKDVEEGDEKFE [R175W],decreasing interaction strength
